This assay deals with CD14+ monocytes. The assay can be described thus: Sema 7a stimulation of CD14+ monocytes; CD206 expression via flow cytometry. It is filed as cell-based, human. On the procedure: Antibodies against mouse F4/80, CD11b, and CD11c, and against human CD4, CD8, and CD14 were purchased from BD Pharmingen. CD206 antibody was purchased from Serotec. Semaphorin 7a antibody was obtained from R & D Systems. Appropriate isotype controls were obtained from BD Pharmingen. Flow cytometry and cell sorting were performed using a BD FACSCalibur. Data were analyzed using Flow Jo v 7.5 software (Tree Star, Inc, Ashland, Oreg.). For all analyses, isotype control staining was subtracted from true antibody staining to determine the percentage of positive cells. When necessary this percentage was then multiplied by the total cell count in the sample to derive absolute quantity of the cell population of interest.
Ficoll separation and processing of PBMCs for FACS was performed as we have previously described (Gan et al., 2011, Arthritis Rgeum. 63:2484-2494).
CD14+ monocytes were obtained via MACS-enrichment as have been previously described. These cells were stimulated with recombinant Sema 7a (Abnova, Taiwan) or human serum albumin (Sigma) as previously described (Gan et al., 2011, Arthritis Rgeum. 63:2484-2494). Lentivirally-mediated shRNA knockdown of Plexin C1 expression was performed using specific anti-Plexin shRNA or control “scramble” shRNA (Santa Cruz Biotech, Santa Cruz […].) as previously described (Gan et al., 2011, Arthritis Rgeum. 63:2484-2494).
In general terms: A flow cytometer gives signals particle by particle.

B1: recombinant Sema 7a protein: recombinant Sema 7a (Abnova, Taiwan) used to stimulate CD14+ monocytes (protein, UniProt O75326 45-648, looked up)
Semaphorin-7A: QGHLRSGPRIFAVWKGHVGQDRVDFGQTEPHTVLFHEPGSSSVWVGGRGKVYLFDFPEGKNASVRTVNIGSTKGSCLDKRDCENYITLLERRSEGLLACGTNARHPSCWNLVNGTVVPLGEMRGYAPFSPDENSLVLFEGDEVYSTIRKQEYNGKIPRFRRIRGESELYTSDTVMQNPQFIKATIVHQDQAYDDKIYYFFREDNPDKNPEAPLNVSRVAQLCRGDQGGESSLSVSKWNTFLKAMLVCSDAATNKNFNRLQDVFLLPDPSGQWRDTRVYGVFSNPWNYSAVCVYSLGDIDKVFRTSSLKGYHSSLPNPRPGKCLPDQQPIPTETFQVADRHPEVAQRVEPMGPLKTPLFHSKYHYQKVAVHRMQASHGETFHVLYLTTDRGTIHKVVEPGEQEHSFAFNIMEIQPFRRAAAIQTMSLDAERRKLYVSSQWEVSQVPLDLCEVYGGGCHGCLMSRDPYCGWDQGRCISIYSSERSVLQSINPAEPHKECPNPKPDKAPLQKVSLAPNSRYYLSCPMESRHATYSWRHKENVEQSCEPGHQSPNCILFIENLTAQQYGHYFCEAQEGSYFREAQHWQLLPEDGIMAEHLLGHACALA
Turning to B1, the “response to Sema 7a stimulation (cell surface expression of CD206)” value (IPF monocytes, p=0.16, FIGS. 6A and 6B) is listed as “failed to respond”. The “increase in cell surface expression of CD206” value (normal human monocytes, p=0.04, FIGS. 6A and 6B) is reported as 94.3%.

The values above are taken from patent US20140271639A1, “Semaphorin 7a Induced Lung Fibrogenesis Occurs in a CD-4-Dependent, Macrophage Dependent Manner” (YALE UNIVERSITY, priority 2011, published 2014).
